Assay results from FireProtDB (doi:10.1021/bi500238q).

B1: Dihydrofolate reductase, Q5KZ26 (parent)
chain: MISHIVAMDENRVIGKDNRLPWHLPADLAYFKRVTMGHAIVMGRKTFEAIGRPLPGRDNVVVTRNRSFRPEGCLVLHSLEEVKQWIASRADEVFIIGGAELFRATMPIVDRLYVTKIFASFPGDTFYPPISDDEWEIVSYTPGGKDEKNPYEHAFIIYERKKAK

Variants of: B1
Conditions: Geobacillus kaustophilus (strain HTA426); pH 7; Thermal; CD; Potassium Phosphate Buffer 10 mM; structure 1ZDR; whole UniProt chain shown

Row | Variant | Tm [°C] | change of melting temperature, mutant - wild type (higher = more stable) [°C]
1 | MISHIVAMDENRVIGKDNRMPWHLPADLAYFKRVTMGHAIVMGRKTFEAIGRPLPGRDNVVVTRNRSFRPEGCLVLHSLEEVKQWIASRADEVFIIGGAELFRQTMPIVDRLYVTKIFASFPGDTFYPPISDDEWEIVSYTPGGKDEKNPYEHAFIIYERKKAK | 61.1 | -5.1
2 | MISHIVAMDENRVIGKDNRLPWHLPADLAYFKRVTMGHAIVMGRKTFEAIGRPLPGRDNVVVTRNRSFRPEGCLVLHSLEEVKQWIASRADEVFIIGGAELFRATMPIVDRLYVTKIFASFEGDTFYPPISDDEWEIVSYTPGGKDEKNPYEHAFIIYERKKAK | 65.3 | -0.9
3 | MISHIVAMDENRVIGKDNRLPWHLPADLAYFKRVTMGHAIVMGRKTFEAIGRPLPGRDNVVVTRNRSFRPEGCLVLHSLEEVKQWIASRADEVFIIGGAELFRATMPIVDRLYVTKIFASFPGDTFYPDISDDEWEIVSYTPGGKDEKNPYEHAFIIYERKKAK | 64.6 | -1.6
4 | MISHIVAMDENRVIGKDNRLPWHLPADLAYFKRVTMGHAIVMGRKTFEAIGRPLPGRDNVVVTRNRSFRPEGCLVLHSLEEVKQWIASRADEVFIIGGAELFRATMPIVDRLYVTKIFASFEGDTFYPDISDDEWEIVSYTPGGKDEKNPYEHAFIIYERKKAK | 65 | -1.2
5 | MISHIVAMDENRVIGKDNRMPWHLPADLAYFKRVTMGHAIVMGRKTFEAIGRPLPGRDNVVVTRNRSFRPEGCLVLHSLEEVKQWIASRADEVFIIGGAELFRATMPIVDRLYVTKIFASFPGDTFYPPISDDEWEIVSYTPGGKDEKNPYEHAFIIYERKKAK | 61.4 | -4.8
